Three molecules from article PMC10238197, “Deafness‐Associated ADGRV1 Mutation Impairs USH2A Stability through Improper Phosphorylation of WHRN and WDSUB1 Recruitment” (Advanced Science, 2023) can be followed below.

The target in assay [1] is WHRN with PDZ2 deleted (mouse) (UniProt Q80VW5). As to the kind of experiment: co-IP; cotransfected HEK293 cells, starved 12 h, lysed in 50 mM Tris-HCl pH 7.4, 150 mM NaCl, 1% Triton, 1% NP-40, 2 mM EDTA; anti-Flag M2 or anti-Myc antibody-conjugated agarose, 4 °C overnight; blots against the tags.
The target in assay [2] is T1, WHRN-PDZ2 domain, purified (mouse).
T1 sequence (Q80VW5 whole entry, looked up): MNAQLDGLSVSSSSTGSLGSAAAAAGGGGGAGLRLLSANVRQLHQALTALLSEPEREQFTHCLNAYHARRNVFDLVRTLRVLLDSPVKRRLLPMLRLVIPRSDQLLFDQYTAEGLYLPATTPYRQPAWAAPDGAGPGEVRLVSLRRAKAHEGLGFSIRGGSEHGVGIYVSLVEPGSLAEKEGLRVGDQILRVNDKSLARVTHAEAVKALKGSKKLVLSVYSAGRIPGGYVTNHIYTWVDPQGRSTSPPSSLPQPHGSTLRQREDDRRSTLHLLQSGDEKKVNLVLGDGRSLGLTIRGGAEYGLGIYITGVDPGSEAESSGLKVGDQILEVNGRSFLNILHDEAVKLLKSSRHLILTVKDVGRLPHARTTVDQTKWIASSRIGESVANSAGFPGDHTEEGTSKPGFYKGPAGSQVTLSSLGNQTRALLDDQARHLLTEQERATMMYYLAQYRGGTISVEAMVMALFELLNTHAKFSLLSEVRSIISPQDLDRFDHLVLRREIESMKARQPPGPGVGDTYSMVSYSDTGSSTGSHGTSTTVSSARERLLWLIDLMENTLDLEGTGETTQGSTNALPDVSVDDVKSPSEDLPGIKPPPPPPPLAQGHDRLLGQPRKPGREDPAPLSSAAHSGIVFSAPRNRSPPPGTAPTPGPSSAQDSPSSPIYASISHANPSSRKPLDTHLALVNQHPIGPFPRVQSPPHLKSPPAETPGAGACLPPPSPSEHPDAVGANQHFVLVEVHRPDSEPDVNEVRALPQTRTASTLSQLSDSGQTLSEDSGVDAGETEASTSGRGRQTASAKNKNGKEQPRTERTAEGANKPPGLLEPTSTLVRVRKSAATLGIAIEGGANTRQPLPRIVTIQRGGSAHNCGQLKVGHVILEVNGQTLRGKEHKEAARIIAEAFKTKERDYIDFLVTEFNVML
As to the kind of experiment: SPR; BiaCore T200; WHRN-PDZ1 or WHRN-PDZ2 immobilised on a CM5 chip, peptide as analyte in serial dilutions, 120 s association and 120 s dissociation; 10 mM HEPES, 150 mM NaCl, 0.05% Surfactant P20, 0.01% DDM, 0.002% CHS, pH 7.4.

In assay [3] the target is T2, WHRN-PDZ1 domain, purified (mouse, UniProt Q80VW5 137-225).
T2 construct: first PDZ domain of whirlin (WHRN), mouse; 13C,15N- or 15N-labelled for NMR; Residues up to A222 were assigned; source: purified protein
T2 sequence: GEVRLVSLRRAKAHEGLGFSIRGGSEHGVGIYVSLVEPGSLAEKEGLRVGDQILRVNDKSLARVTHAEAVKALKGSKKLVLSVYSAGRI
Nature of the assay: ITC; ITC200; purified PDZ protein 50 uM, peptide 1 mM; 20 mM Tris, 200 mM NaCl, 2 mM EDTA, pH 7.4. The settings on record: both partners purified.

Assay [4] deals with T2, WHRN-PDZ1 domain, purified. Nature of the assay: SPR; BiaCore T200; WHRN-PDZ1 or WHRN-PDZ2 immobilised on a CM5 chip, peptide as analyte in serial dilutions, 120 s association and 120 s dissociation; 10 mM HEPES, 150 mM NaCl, 0.05% Surfactant P20, 0.01% DDM, 0.002% CHS, pH 7.4. Conditions: both partners purified.

The molecule “ADGRV1 of the PDZ-truncation co-IP (Figure 6b,c) (from UniProt Q8VHN7 4333-6298) (receptor)” came in with a decrease of co-immunoprecipitated ADGRV1 against WT WHRN in assay [1] of 85%.
RRIPIADTHL [ADGRV1p, 10-residue C-terminal tail peptide of ADGRV1 harboring the PDZ-binding motif]: the Kd in assay [2] was 61.2 µM.

B1: USH2Ap, 10-residue C-terminal tail peptide of USH2A harboring the PDZ-binding motif (peptide, UniProt Q2QI47 5184-5193, looked up)
peptide: EHTAFTDTHL
notes: also called USH2A C-terminal peptide; source: synthetic peptide
For B1, the results for the Kd in assay [3] and in assay [4] were 28.4 ± 4.2 µM and 23 ± 2.01 µM, respectively.
